Test results: US20140086913A1 (Gilead, published 2014)

B1: AB2041 (antibody, V domains shown)
VH: QVQLHQSGSELAKPGASVKMSCKASGYIFTTYWIHWLKQRPGQGLEWIGFINPDTDYTEYNQKFKDKATLTADKSSNTAYVQLSSLTSEDSAVYYCARGNYGYDGLVYWGLGTLVTVSA
VL: SIVMTQTPKFLLVSAGDRVTITCKASQSVSTDVAWYQQKPGQSPKLLIYYASNRYTGVPDRFTGSGYGTDFTFTISTVQAEDLAVYFCQQDYNSYTFGGGTKLEIKR
notes: mouse hybridoma mAb
B2: AB2092 (antibody, V domains shown)
VH: QIQLVQSGPELKKSGETVKISCKASGYTFTDYGMNWVKQAPGKGLKWMGWINTYTGKSTYADDFKGRFAFSLETSASTTYLQITNLKNEDMATYFCARWADYFGSSYLFASWGQGTLVTVSA
VL: DVLMTQTPLSLPVSLGDQASISCRSSQSIVHSDGNTYLEWYLQKPGQSPKLLIYKVSNRFSGVPDRFSGSGSGTDFTLKISRVEAEDLGIYYCFQGSHVPWTFGGGTKLEIKR
notes: mouse hybridoma mAb
B3: AB2004 (antibody, V domains shown)
VH: DVHLQESGPDLVKPSQSLSLTCTVTDYSITSGYGWHWIRQFPGNKLEWMGYIHYGGSTKYNSSLKSRISITRDTSKNQFFLQLKSVTTDDTGTYYCATSGNYGFAYWGQGTLVTVSA
VL: DIVLTQSPTSLAVSLGQRATMSCRASESVDDYGTSFMHWYQQKPGQPPKLLIYRASNLESGIPARFSGSGSRADFTLSINPVEPDDVATYYCQQSNEDPFTFGSGTKLEIKR
notes: mouse hybridoma mAb
B4: AB2010 (antibody, V domains shown)
VH: QVQLKQSGPGLVQPSQSLSITCTVSGFSFTGYGIHWVRQSPGKGLEWLGVIWSGGITDYNAAFISRLSISMDSSKGQVFFKMNSLQANDTAIYYCARRSTTVVADYAMDYWGQGTSVTVSS
VL: SIVMTQTPKFLLVSAGDRVTITCKASQSVSNDVAWYQQKPGQSPKLLIYYASNRYTGVPDRFTGSGYGTDFTFTINTVQAEDLAVYFCQQDYTSPLTFGAGTKLELKR
notes: mouse hybridoma mAb
B5: AB2039 (antibody, V domains shown)
VH: EVQLVESGGGLVQPGGSLKFSCAASGFTFSSYGMSWVRQTPDKRLELVAIINSHGFSTYYPDSVKGRFTISRDNAKNTLYLQMSSLKSEDTAIYYCARGGYGNYGMDYWGQGTSVTVSS
VL: DIVLTQSPASLAVSLGQRATISCRASESVDSYGNSFMHWYQQKVGQPPKLLIFRASNIESGIPARFSGSGSRTDFTLTINSVEADDVATYYCQQSNEAPYTFGGGTKLEIKR
notes: mouse hybridoma mAb; also called AB0039
B6: AB2078 (antibody, V domains shown)
VH: EIQLQQSGPELVNPGASVKVSCKASGYSFTDYNMYWVKQSHGKSLEWIGYIDPYNGGTSYNQKFKGKATLTVDKSSSTAFMHLNSLTSEDSAVYYCAREYYGSRLWYFDVWGAGTAVTVSS
VL: DIVMTQSPSSLAMSVGQKVTMSCKSSQSLLNRNNQKNYLAWYQQKPGQSPKLLVYFASTRESGVPDRFIGSGSGTDFTLTLSSVRAEDLAENFCQQHYSTPFTFGSGTRLEIKR
notes: mouse hybridoma mAb

Biological target: DDR1 endogenously expressed on human cancer cell lines (T47D, HCT-116, A431) (human) (UniProt Q08345)
Test: cell-based or functional assay

B1 and B2 are within 1.5-fold of each other in EC50, DDR1 phospho-specific ELISA (T47D): 0.72 nM for the first, 0.52 nM for the second.

First: B1
Second: B2
The EC50, cluster formation assay (A431 cells) of the first is 2.1-fold lower: 2.03 nM for the first, 4.18 nM for the second.

B1 and B2 are the same in Maximal inhibition, DDR1 phospho-specific ELISA (T47D): 100% for the first, 100% for the second.

Biological target: DDR1 endogenously expressed on human cancer cell lines (T47D, HCT-116, A431) (human) (UniProt Q08345)
Test: cell-based or functional assay
Remark: another data set of the same source

B3 and B4 are within 1.5-fold of each other in EC50, DDR1 phospho-specific ELISA (T47D): 0.43 nM for the first, 0.63 nM for the second.

B5 and B6 are within 1.5-fold of each other in EC50, DDR1 phospho-specific ELISA (T47D): 0.43 nM for the first, 0.39 nM for the second.

First: B3
Second: B4
The EC50, cluster formation assay (A431 cells) of the first is 2.1-fold lower: 2.28 nM for the first, 4.84 nM for the second.

Going from B5 to B6, the EC50, cluster formation assay (A431 cells) rises from 0.93 nM to 1.82 nM (2-fold).

B3 and B4 are the same in Maximal inhibition, DDR1 phospho-specific ELISA (T47D): 100% for the first, 100% for the second.

B5 and B6 are the same in Maximal inhibition, DDR1 phospho-specific ELISA (T47D): 100% for the first, 100% for the second.

Compared with B3, B4 is lower in NPI of cluster formation at 66 nM (A431 cells): 110% for the first, 108% for the second.

Compared with B5, B6 is higher in NPI of cluster formation at 66 nM (A431 cells): 103% for the first, 123% for the second.

Biological target: DDR1 stably over-expressed in HCT-116 tumor cells, Q08345
Test: cell-based or functional assay

Compared with B3, B5 is 2.3-fold lower in EC50, NFkB luciferase reporter (HCT-116, collagen II): 3.7 nM for the first, 1.63 nM for the second.

B1 and B2 are within 1.5-fold of each other in EC50, NFkB luciferase reporter (HCT-116, collagen II): 1.12 nM for the first, 1.13 nM for the second.

First: B3
Second: B5
The EC50, collagen-mediated relocalization of DDR1 (HCT-116) of the first is 3.1-fold higher: 1.4 nM for the first, 0.45 nM for the second.

For B1, the EC50, collagen-mediated relocalization of DDR1 (HCT-116) was 2.2 nM.

Compared with B3, B5 is 1.5-fold lower in EC90, NFkB luciferase reporter (HCT-116, collagen II): 6.95 nM for the first, 4.61 nM for the second.

B1 and B2 are within 1.5-fold of each other in EC90, NFkB luciferase reporter (HCT-116, collagen II): 4.17 nM for the first, 4.73 nM for the second.

Biological target: DDR1 with a ProLink Tag (PK) in engineered U20S cells (DiscoveRx), Q08345
Test: cell-based or functional assay

Compared with B3, B4 is 4.1-fold higher in Mean EC50, DDR1 Tyr513 phosphorylation assay (U20S): 1.85 nM for the first, 7.6 nM for the second.

First: B5
Second: B1
The Mean EC50, DDR1 Tyr513 phosphorylation assay (U20S) of the first is 2.4-fold lower: 1.1 nM for the first, 2.65 nM for the second.

Work on B2 yielded a Mean EC50, DDR1 Tyr513 phosphorylation assay (U20S) of 2.45 nM.

Biological target: T1, mouse ECD-DDR1-Fc (mouse; human, UniProt Q03146 22-414)
T1 construct: also called mouse DDR1-ECD; wild-type mouse DDR1-ECD; not shown: human IgG1 Fc of the vector pFuse-hIgG1-Fc1 (Invivogen)
T1 sequence: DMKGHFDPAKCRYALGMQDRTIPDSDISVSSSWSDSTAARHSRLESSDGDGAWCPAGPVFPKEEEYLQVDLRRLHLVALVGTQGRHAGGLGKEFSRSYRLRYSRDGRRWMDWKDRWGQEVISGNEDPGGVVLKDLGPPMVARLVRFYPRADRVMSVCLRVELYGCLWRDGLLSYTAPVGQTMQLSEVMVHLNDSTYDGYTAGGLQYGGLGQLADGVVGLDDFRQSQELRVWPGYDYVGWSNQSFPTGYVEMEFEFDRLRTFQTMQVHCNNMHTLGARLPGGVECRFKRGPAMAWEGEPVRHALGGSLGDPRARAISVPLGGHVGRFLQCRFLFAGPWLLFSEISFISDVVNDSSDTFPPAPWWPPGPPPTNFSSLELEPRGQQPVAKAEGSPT
Test: ELISA, coated antigen, apparent KD
Procedure, shortened: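 Plates coated overnight at 4° C with 2 μg/mL purified tagged DDR1 ECD protein, BSA-blocked; serially diluted murine anti-DDR1 mAbs bound 1 hr at room temperature, detected with anti-mouse IgG-HRP and TMB (OD 450). Apparent KD taken as C-parameter of 4-parameter logistic fit of OD versus antibody concentration.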

Compared with B4, B5 is 14-fold lower in Kd: 33.7 nM for the first, 2.37 nM for the second.

Compared with B6, B2 is 9.2-fold lower in Kd: 10.9 nM for the first, 1.19 nM for the second. The second binds more tightly here.

Biological target: T2, mouse DDR1 stably expressed on HEK293 cells (mouse, UniProt Q03146 20-911)
T2 construct: whole, on cells; also called murine DDR1
T2 sequence (looked up): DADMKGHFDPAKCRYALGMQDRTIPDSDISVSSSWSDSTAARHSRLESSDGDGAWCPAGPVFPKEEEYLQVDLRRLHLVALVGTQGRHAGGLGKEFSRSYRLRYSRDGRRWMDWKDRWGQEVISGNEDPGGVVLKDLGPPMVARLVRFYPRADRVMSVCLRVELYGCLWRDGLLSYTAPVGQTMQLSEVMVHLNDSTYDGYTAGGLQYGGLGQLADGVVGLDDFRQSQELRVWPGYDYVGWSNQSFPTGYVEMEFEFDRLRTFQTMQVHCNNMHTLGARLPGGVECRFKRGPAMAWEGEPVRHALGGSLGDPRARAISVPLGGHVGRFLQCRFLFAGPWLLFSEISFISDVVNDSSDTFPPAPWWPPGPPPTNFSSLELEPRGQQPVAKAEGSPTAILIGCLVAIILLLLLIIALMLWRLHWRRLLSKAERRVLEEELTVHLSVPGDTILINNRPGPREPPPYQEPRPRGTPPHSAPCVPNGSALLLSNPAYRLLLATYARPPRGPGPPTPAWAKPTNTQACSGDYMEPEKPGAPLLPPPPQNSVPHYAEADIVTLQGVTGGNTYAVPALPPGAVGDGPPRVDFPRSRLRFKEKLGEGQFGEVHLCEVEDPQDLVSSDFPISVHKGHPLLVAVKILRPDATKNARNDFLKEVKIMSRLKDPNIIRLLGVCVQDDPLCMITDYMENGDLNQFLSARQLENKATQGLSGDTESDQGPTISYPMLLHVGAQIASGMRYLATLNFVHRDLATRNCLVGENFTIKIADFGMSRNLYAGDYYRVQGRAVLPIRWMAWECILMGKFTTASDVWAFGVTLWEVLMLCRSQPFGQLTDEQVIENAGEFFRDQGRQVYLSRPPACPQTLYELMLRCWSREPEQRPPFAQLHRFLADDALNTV
Test: flow cytometry on transfected HEK293 cells

B1: binds.

Biological target: human DDR1 (isoform B) stably expressed on HEK293 cells (human) (UniProt Q08345)
Test: flow cytometry, HEK293/human DDR1, normalized to empty-vector cells

Going from B3 to B5, the MFI falls from 14400 MFI to 8020 MFI.

First: B1
Second: B6
The MFI of the first is higher: 12500 MFI for the first, 7490 MFI for the second.

Work on B2 yielded an MFI of 6020 MFI.

Biological target: T2, mouse DDR1 stably expressed on HEK293 …
Test: flow cytometry, column without head (taken as HEK293/mouse DDR1)
Method: Additional monoclonal antibodies were obtained from individual hybridomas in Example 1 and were characterized for their properties.
Cells were cultured in DMEM with 10% FBS and 0.8 mg/mL hygromycin. When cells reached 60-80% confluence, they were centrifuged at 1,200 rpm for 5 minutes, suspended in FACS buffer (1×PBS, 1% BSA), and aliquoted into a 96-well plate at 1×10⁶ cells per well. The anti-DDR1 monoclonal antibodies or appropriate isotype controls at 2 μg per 1×10⁶ cells were added and incubated at 4° C. for 1 hr. The cells were washed twice with FACS buffer then stained with the anti-IgG-PE secondary antibody at 10 μL per well at 4° C. for 1 hr. The cells were washed again and measured for the MFI values or signals using flow cytometry (LSR Fortessa instrument, BD Biosciences). Background MFI signals from vector-only cells (i.e. no DDR1 or DDR2 expression) was subtracted from those of the cells treated with antibodies. Higher MFI values or signals indicated increased binding or specificity of the anti-DDR1 antibodies to the DDR1 on the cell surface.

First: B3
Second: B4
The MFI of the first is higher: 9500 MFI for the first, 7140 MFI for the second.

Compared with B5, B6 is higher in MFI: 10500 MFI for the first, 24200 MFI for the second.

B2 showed an MFI of 22800 MFI.
